The DeepSol protein solubility set

Test: soluble on expression in E. coli; label from the status in PepcDB or PDB records
For “MSLRKYPEYTWDLTTIFKDDEAFEAAFKEVENELGKEEQFKGHIGDSAETLYNALELEDTLGTKLEKVYVYAHLKQDQDTTNDKYTGMESRAHQLIIKFSSAWSFLVPEILQIDEDKIQSFVNSYDKLQKFAFDLKLINEKRPHILDAETEKLLTEAQDALSTPSNVYGMFSNADLVFEDAIDKDGNAHPLTQGTFIKYLESDDRKLRESAFRNVYKAYGAHNNTLGATLAGEVKKNVFNARTHNYKTAREKALSNNHIPENVYDNLVKTVHKYLPLLHRYTELRKELLGLDDLKMYDLYTPLIKDIKFEMPYEEAKEWMLKALEPMGEEYLNVVKEGLNNRWVDVYENKGKRSGGYSSGAHLTNPFILLNWSNTISDLYTLVHEFGHSAHSYFSRKFQPSNSSDYTIFVAEVASTCNEALLSDYMDKHLDDEKRLLLLNQELERFRATLFRQTMFAEFEHKIHAIEEAGEPLTPTRMNEEYAKLNKLYFGDSVETDEDISKEWSRIPHFYMNYYVYQYATGYSAAQSLSHQILTEGKPAVDRYINEFLKKGSSNYPIEILKNAGVDMTTPEPIEQACEVFEQKLNAFEKLMKEGHHHHHH”, the “soluble on expression in E. coli” value was “soluble”. With “MSLRNEVQFELFGDYALFTDPLTKIGGEKLSYSVPTYQALKGIAESIYWKPTIVFVIDELRVMKPIQMESKGVRPIEYGGGNTLAHYTYLKDVHYQVKAHFEFNLHRPDLAFDRNEGKHYSILQRSLKAGGRRDIFLGARECQGYVAPCEFGSGDGFYDGQGKYHLGTMVHGFNYPDETGQHQLDVRLWSAVMENGYIQFPRPEDCPIVRPVKEMEPKIFNPDNVQSAEQLLHDLGGEEGHHHHHH” the “soluble on expression in E. coli” value was “soluble”. For “MSLRNKLQQAKRIVIKVGTSSLIYPNGNINLKAIDQLAFTLSDLSNQGKEIILVSSGAIGVGLNKLNLSVRPTTIPEQQAVAAVGQAELMNIYNQRFSTYSQQMAQVLLTRDVIEYPESRNNVTNTFEQLLKMNIIPIVNENDTVAIEELDHLTKFGDNDQLSAIVCQIVQADLLVMLSDIDGFFSDNPTVNKEATLFSEINEINEDLFQLAGGKGSRFGTGGMSSKLKAAERVLANQQAMILANGKQPKIIFEILEGKDIGTLFIKGGHESDEGHHHHHH”, the “soluble on expression in E. coli” value was “soluble”. In the case of “MSLRPATDSPPLCAPPGAEVRAPSFVMPAGACDTHAHVISGDLERYPLVPDRSYTPPPAPEALYLEVLRAMGMQRGVLVQPSVYGTDNRYMLEVLQRHQDQLRGVAVVDEHVGDDELAHMHALGVRGVRINVLFRGGVNLDLMEHLAHRIADLGWHMQFLIDVRLLSEIEARMAKLPCAVVIDHFGHFPAHLGIKEAGFELLLRNVAEHGWWVKLSGAYRLSDQRPDYADTDALAHALLAVAPERMVWGSDWPHVALESTPDTSSLLDRLLSWAPSERQRQSILVDNPGALYDFKEGHHHHHH”, the “soluble on expression in E. coli” value is reported as “soluble”. For “MSLRPLAIIGPTGAGKSQLALDVAARLGARVSVEIVNADAMQLYRGMDIGTAKLPVSERRGIPHHQLDVLDVTETATVARYQRAAAADIEAIAARGAVPVVVGGSMLYVQSLLDDWSFPATDPSVRARWERRLAEVGVDRLHAELARRDPAAAAAILPTDARRTVRALEVVELTGQPFAASAPRIGAPRWDTVIVGLDCQTTILDERLARRTDLMFDQGLVEEVRTLLRNGLREGVTASRALGYAQVIAALDAGAGADMMRAAREQTYLGTRRYVRRQRSWFRRDHRVHWLDAGVASSPDRARLVDDAVRLWRHVTEGHHHHHH”, the “soluble on expression in E. coli” value was “soluble”. With “MSLRQGKIRVVLADDHTMFRQGLKEMLLTGGDIEVVGEAEDGRAALEEIRRHKPDVAILDVEMPEMDAREVMVRLPEASPHTRAVIVTVFAEARLARELVRLGARAYVTKNATLQELLAAVRSAARAAGGDNVLLAVPRGLIEGSGGPEGCELSERELEILLLVARGLSNRQVASELHLAEATVKRHLANVYAKLNVGSRGEAVRKALSKGWFTSRDVTEGHHHHHH” the “soluble on expression in E. coli” value was “soluble”. For “MSLRSDSFEILRDCRALFLKHLGALLLDSGIISGSAIRAIQEGAGAYFDEMVSTTRRGSFSEEAHGLTSSRITLVGEDDLELGIRLDNLSARLFETTGGSLWRTHLRFVTLLRRPDLPKSANPIGPKGICQGLTTMFAASGASSIEQKLALLDRIEVYLLANLPGLYAEINDFLDRGGIEAAQATILGSPDGPKQADQSSANPLLALQQQLLARLPGGIASIQPPTGTGGAAASLLSQASLEQLIFRLNELDRQGAFRAQFKPGTSLSTESLIPELFSGSTAKASLPKALNSAELGIPSTATEGLAIDTLAIIFEAIFSEPTLPDTLKAAISSLQITLLKMAMKDASLFTDDKHPARLVIDRMGQAVLGLPTDVPARHPVCARLFEIASQLRSGNGDISAFQSALTQLDALVAERNNELAKSAAAYLPLLRQLDRRDEASIQTRHILDKLIEQKPPEAVQAFLNESWRKVLQLVWLENGPDSSQWQAHVTAIEELLWSFQPKTDPAERKSLAHRLPNILKLLKTGMERIGLPTEAQEAFLDDCFTLQTQALRAAPAAETGATSVIAATGLHASGSETVYGDVQSGQFVLNTLDFSDYQPGPARSLSCAIGDWLELRIDDSTTRVARICYISPNSQRTLLLNPDFGLALAIHPAILDRQLRAGEARIRSASSLFEIAASRALQKTTTNEGHHHHHH”, the “soluble on expression in E. coli” value was “soluble”. With “MSLRSKLFLILTLHRSGSSATAGVLYHLGVHMGQHLLKENESNPKGHFENEEFVAVNDRILHTIGGSWKKPPSPELIKQLKIPRRQVETFLLQHAKPAWGIKDPRMLLTFDLWKGPMERVADITYIIVHRPIKESIASLVRRNDMTELEAQQILLPYLGNKQRIREQLVEEGADIIDVHFSDLLQHPDELVAAVNQRLGRAPKKRLDDVRLFLDHSLKHEGHHHHHH” the “soluble on expression in E. coli” value was “soluble”. For “MSLRVLKFGGTSVANAERFLRVADILESNARQGQVATVLSAPAKITNHLVAMIEKTISGQDALPNISDAERIFAELLTGLAAAQPGFPLAQLKTFVDQEFAQIKHVLHGISLLGQCPDSINAALICRGEKMSIAIMAGVLEARGHNVTVIDPVEKLLAVGHYLESTVDIAESTRRIAASRIPADHMVLMAGFTAGNEKGELVVLGRNGSDYSAAVLAACLRADCCEIWTDVDGVYTCDPRQVPDARLLKSMSYQEAMELSYFGAKVLHPRTITPIAQFQIPCLIKNTGNPQAPGTLIGASRDEDELPVKGISNLNNMAMFSVSGPGMKGMVGMAARVFAAMSRARISVVLITQSSSEYSISFCVPQSDCVRAERAMQEEFYLELKEGLLEPLAVTERLAIISVVGDGMRTLRGISAKFFAALARANINIVAIAQGSSERSISVVVNNDDATTGVRVTHQMLFNTDQVIEVFVIGVGGVGGALLEQLKRQQSWLKNKHIDLRVCGVANSKALLTNVHGLNLENWQEELAQAKEPFNLGRLIRLVKEYHLLNPVIVDCTSSQAVADQYADFLREGFHVVTPNKKANTSSMDYYHLLRHAAEKSRRKFLYDTNVGAGLPVIENLQNLLNAGDELMKFSGILSGSLSYIFGKLDEGMSFSEATTLAREMGYTEPDPRDDLSGMDVARKLLILARETGRELELADIEIEPVLPAEFNAEGDVAAFMANLSQLDDLFAARVAKARDEGKVLRYVGNIDEDGVCRVKIAEVDGNDPLFKVKNGENALAFYSHYYQPLPLVLRGYGAGNDVTAAGVFADLLRTLSWKLGVEGHHHHHH”, the “soluble on expression in E. coli” value was “soluble”. In the case of “MSLRYFVFATFKVHKDATNSYFSNGDVVVVNRNRTPKYKDFIVYKVGKIFYISRVIGEPNQKVRVMDDILYLNDVFKDEPYIEKMKNAYSEKKDGQMPFTSDFSVETLTRNKESRVPKGSYLVLNDNRQNKNDSRKFGLIKEKDIRGVITFKVYPLSEFGFTASEGHHHHHH”, the “soluble on expression in E. coli” value is reported as “soluble”. In the case of “MSLRYLSESKVAIKHSNDLNGSNLNVALLMGAGNPSSAEDALYLKEYINSPDMLAVLDKQLDFRQAFGHSGWDFFYHLSDSATREQFLNYYRNRISVSYDDKTGLLTIGTQGFSPEFAQKFNQAVLKESERFINEEGHHHHHH”, the “soluble on expression in E. coli” value is reported as “soluble”. For “MSLSAAEAGPLQGGLHVLIVDDNDINLKVLSTFMSKIGCSYDTASNGLVAVEKYRQTQQKFDYVLMDISMPIMDGITASRTIREYEDESLLERCTIMAVTGVASSDMQQQAFAAGMDDYLVKPLSLHDLKRILGVNEGHHHHHH”, the “soluble on expression in E. coli” value was “not soluble”. In the case of “MSLSADKLYIDKELSWLSFNERVLQEAADKTVPLIERIRFLGIFSNNLDEFYKVRFADVKRQILINRERGGNDISKHLLSRMQSKALKLNQDFDNLYNELILEMARRRIFLVNETQLDEIQLKWVKKYFHKEVLPHVTPIMLRDDIDVMQFLKDEYAYIAVEMRSGDEFKYALIEIPTDQLPRFVMLPEQKGKRRKTIILLDNIIRLCLDEIFRGFYDYDTLNGYAMKMTRDAEYDLRHEVEYSLLEQMSEGLSQRLTALPVRFVYEREMPEAMLKFLCYKLKISHYDSLIPGGRYHNFKDFISFPNVGRDYLENKPLPPMTCADFEGYANAFDAIRAQDILLHYPYHSFEHMTELVRQASFDPKVVSIKINIYRVAKDSKLMNSLVDAVHNGKRVVVVVELQARFDEEANIEWSRILTDAGVHVIFGVPGMKIHAKLLLITRKEGDEFVRYAHIGTGNFHERTARIYTDFALLTANQELAAEVRAVFGYIENPFRPVKFNHLIVSPRNSRTQIYRLLDSEIANAKAGKKAAITLKVNNLVDKGLINKLYGASAAGVKIRMIIRGMCSLVPGVEGVSDNIEIISIIDRFLEHPRVLVVHNDGNPQVFISSADWMERNIDHRIEVMAPIRDERLKQRIIDILNIQFIDTVKARRIDKEMSNQYVERGNRRKVRSQIAIYDYLKNVEKQTRKAKGQQETNDNSSQEGHHHHHH”, the “soluble on expression in E. coli” value is reported as “soluble”. For “MSLSAMARKVKITDVKCMIVRGTWDWNLIKIETDSGLYGIGEAYWGWGVKDLVVNKMKGIIVGEDPLNVDKLYTKMLMQSAGAGAIGGVTMTAASGIEIALWDLCGRILDTPVCNLLGGRFRDRIRFYRTTQAVKNVEDTKEWRALAESARAEKWGWTAFKFQGDGIPPRADPEFKEPGHDPYARNLTHKDHRRIVTAMETVRETLGPDADFAVECHWRYDTQDVISLGKELEPVKPMWLEDPVPPDNIEAMQRVTHAINVPVCTGENLYGRQGFRKLIEMQACSGVHIDIPKSGGLMESKKISDLADLYYIWTACHNPASPVGTIASCHASAAMREFRIHELANWVDWWPDLVIREGPFWKDGYFTIQDKPGYGVELNPDVAKAHLAPGETWWGEGHHHHHH”, the “soluble on expression in E. coli” value was “not soluble”. With “MSLSASPELADKKGIRACPFDEPKASDEINTGFMKIFTGGDTITARALYKEPIYFKPQFKPFLLCNELPTIKSDDDGTWRRLKVIPFLSKFIKHSEATKKMKKEGLPKNHFWADTSLSEKLPDWKQGFMCLLLKYFRKYRKHGLIHPKLVTQHTVEYRKKCDVFQDFIGDYLVRVDNTKKGISVMDLYQNMREWYKSNYTGKCPNAKDLRNYVQHRMPTYNKNAEGHHHHHH” the “soluble on expression in E. coli” value was “not soluble”. For “MSLSDKKVLCVEDEEVIRSNLMETLELFFDKVSGAKDGFEALEQAMCDTYDVFIFDISIPHLDGLEVLKRVRQFNKKTPIVILSAHKEQEYLWRAVELKITRYLTKPYDKNSLIKALEEVALELMDYHPLFQISPLHSYDFCRKAMTCKGEMVYLSKKREPTEGHHHHHH”, the “soluble on expression in E. coli” value was “not soluble”. In the case of “MSLSDVSRILKEARSQSRLTTLDYAEQIFDDFMELHGDRHFADDGAIVGGIGLLDGQAVTVIGVQKGKNLQDNLNRNFGQPNPEGYRKALRLMKQAEKFKRPVVTFINTAGAYPGIGAEERGQGEAIARNLLEMSDLKVPIIAIIIGEGGSGGALALAVADKVWMLEHTMYAVLSPEGFASILWKDGSRSIEAAELMKITAGELLKMEVVDKVIPEHGYFSSEIIQMLKTNLIEELKNLDQYPLNDLLEKRYQRFRKYEGHHHHHH”, the “soluble on expression in E. coli” value is reported as “soluble”. In the case of “MSLSEEDLEKFLIKELTLQGYERLNLSDINDLESNFKLQLQRLNNISFSPTEWESFYRQNITNLKLTFEDKTKMLQSDGFTLTLEKEDGSKKNIILIDRVNPINNHLQVISQLKNENGEFKNRYDVSILVNGLPLVHIELKRRGVNLKEAFNQIRRYQKESFLEGNALYEFVQIFIISNGTLTKYYSNTNEGHHHHHH”, the “soluble on expression in E. coli” value is reported as “soluble”.
